{"source": "IntAct's records for PubMed 21577206", "parents": {"B1": {"name": "Transgelin-2 (Homo sapiens), P37802 (parent)", "chain": "MANRGPAYGLSREVQQKIEKQYDADLEQILIQWITTQCRKDVGRPQPGRENFQNWLKDGTVLCELINALYPEGQAPVKKIQASTMAFKQMEQISQFLQAAERYGINTTDIFQTVDLWEGKNMACVQRTLMNLGGLAVARDDGLFSGDPNWFPKKSKENPRNFSDNQLQEGKNVIGLQMGTNRGASQAGMTGYGMPRQIL"}}, "data": [{"variants_of": "B1", "settings": "with actb_human ACTB", "values": [{"variant": "S163D", "effect of a mutation on the interaction": "decreasing interaction"}, {"variant": "S163A", "effect of a mutation on the interaction": "increasing interaction"}, {"variant": "S83A", "effect of a mutation on the interaction": "increasing interaction"}, {"variant": "S83D", "effect of a mutation on the interaction": "decreasing interaction"}]}]}
